Test results as given in article doi:10.1101/2022.03.17.482250 (bioRxiv, 2022).
Blank lines part the entries; values can stand above or below the molecule they belong to.

B1: Dynein light intermediate chain (natural protein)
chain: MAPVGVEKKLLLGPNGPAVAAAGDLTSEEEEGQSLWSSILSEVSTRARSKLPSGKNILVFGEDGSGKTTLMTKLQGAEHGKKGRGLEYLYLSVHDEDRDDHTRCNVWILDGDLYHKGLLKFAVSAESLPETLVIFVADMSRPWTVMESLQKWASVLREHIDKMKIPPEKMRELERKFVKDFQDYMEPEEGCQGSPQRRGPLTSGSDEENVALPLGDNVLTHNLGIPVLVVCTKCDAVSVLEKEHDYRDEHLDFIQSHLRRFCLQYGAALIYTSVKEEKNLDLLYKYIVHKTYGFHFTTPALVVEKDAVFIPAGWDNEKKIAILHENFTTVKPEDAYEDFIVKPPVRKLVHDKELAAEDEQVFLMKQQSLLAKQPATPTRASESPARGPSGSPRTQGRGGPASVPSSSPGTSVKKPDPNIKNNAASEGVLASFFNSLLSKKTGSPGSPGAGGVQSTAKKSGQKTVLSNVQEELDRMTRKPDSMVTNSSTENEA
B2: Full-length mouse BICDR1 (natural protein)
chain: MSAFCLGLAGRASAPAEPDSACCMELPAGAGDAVRSPATAAALVSFPGGPGELELALEEELALLAAGERSSEPGEHPQAEPESPVEGHGPPLPPPPTQDPELLSVIRQKEKDLVLAARLGKALLERNQDMSRQYEQMHKELTDKLEHLEQEKHELRRRFENREGEWEGRVSELETDVKQLQDELERQQLHLREADREKTRAVQELSEQNQRLLDQLSRASEVERQLSMQVHALKEDFREKNSSTNQHIIRLESLQAEIKMLSDRKRELEHRLSATLEENDLLQGTVEELQDRVLILERQGHDKDLQLHQSQLELQEVRLSYRQLQGKVEELTEERSLQSSAATSTSLLSEIEQSMEAEELEQEREQLRLQLWEAYCQVRYLCSHLRGNDSADSAVSTDSSMDESSETSSAKDVPAGSLRTALNDLKRLIQSIVDGVEPTVTLLSVEMTALKEERDRLRVTSEDKEPKEQLQKAIRDRDEAIAKKNAVELELAKCKMDMMSLNSQLLDAIQQKLNLSQQLEAWQDDMHRVIDRQLMDTHLKEQSRPAAAAFPRGHGVGRGQEPSTADGKRLFSFFRKI

Assays:
Test in all cases: cryo-EM structure
[1] = target: Dynactin (pig (endogenous in pig brain)) (UniProt F2Z5G5)
[2] = target: B2
[3] = target: the molecule itself

stoichiometry N (dynein dimers in the complex) [1]: 2
Molecule: Human cytoplasmic dynein-1 (from UniProt Q14204;Q13409;O43237;Q9NP97) (complex)

Molecule: B1
binding result [2]: binds

Molecule: B2
binding result [3]: binds | stoichiometry N (adaptors per dynein-dynactin complex) [1]: 2
